# According to article PMC10825162 (Nature Communications, 2024):
# B1: BA7208 (antibody, V domains shown)
# VH: EVQLVQSGAEVKKPGESLKISCKGSGYSFTSYYWIGWVRQMPGKGLEWMGIVYPDDSDTRYSPSFQGQVTISADKSISTAYLQWSSLKASDTAMYYCVRHPGGGDWYFDLWGRGTLVTVSS
# VL: DIQMTQSPSTLSASVGDRVTITCRASQSISSWLAWYQQKPGKAPKLLIYKASSLESGVPSRFSGSGSGTEFTLTITSLQPDDFATYYCQQYDSFSWTFGQGTKLEIK
# Biological target: SARS-CoV-2 spike (reference strain) expressed on CHO-K1 cells (SARS-CoV-2 reference strain (Wuhan-Hu-1), UniProt P0DTC2)
# Experiment: flow cytometry on cells
# Details: one partner purified
binder,measurement,value
B1,binding result,binds
